The text below walks through data of patent publication US20090068174A1, “THERAPEUTIC ALKALINE PROTEASE COMPOSITIONS AND USE IN FACILITATING THE TRANSPORT OF AGENTS ACROSS THE GASTROINTESTINAL MUCOSAL LINING” (Kansas University Medical Center Research Institute, Inc., priority 2007, published 2009).

“Also recorded” adds a separate entry of the source.

The nature of data set [1]: Biochemical properties of the purified proteases (Table 4): pH optimum, substrate specificity, metal requirements. To be noted: established by inventors.
The conditions of data set [2]: Table 4, cited from earlier work.
In another data set the target is human TNF-α (Homo sapiens, UniProt P01375). The data set is described as follows: Human TNF-α hydrolysis (Western blotting). Format: biochemical. To be noted: 50 ng cytokine with 2.5, 5, 10 ng protease, overnight at 37° C., Western blot. The procedure:
Effects of the purified A. oryzae proteases on human recombinant TNF-α: (A) protease powder prepared according to Example 1 (preparation); (B) alkaline protease; (C) 26 kDa protease; and (D) deuterolysin. 50 ng quantities of TNF-α were incubated at 37° C. for 18 hours with the indicated quantities of protease powder prepared according to Example 1, alkaline protease, 26 kDa protease or deuterolysin. Western blotting was then used to determine substrate specificity. C=control, buffer-treated TNF-α.
Human TNF-α is cleaved and inactivated by Aspergillus oryzae alkaline protease. Purified cytokine (50 ng) was first combined with the following amounts [2.5, 5, and 10 ng] of protease powder prepared according to Example 1 (preparation), as well as alkaline protease, 26 kDa protease, and deuterolysin prepared according to Example 2. Each mixture was incubated overnight at 37° C. and examined by Western blotting for evidence of proteolysis. […] Because the antibody used in this Western blot was specific for the carboxyl terminus of human TNF-α, these enzymes cleaved the cytokine at the amino terminus yielding a smaller peptide that retained the C-terminal epitope.
In general terms: A western blot detects proteins with antibodies after separation by electrophoresis.

The target in another data set is T1, mouse recombinant IFN-γ (Mus musculus, UniProt P01580).
T1 sequence (P01580 23-155): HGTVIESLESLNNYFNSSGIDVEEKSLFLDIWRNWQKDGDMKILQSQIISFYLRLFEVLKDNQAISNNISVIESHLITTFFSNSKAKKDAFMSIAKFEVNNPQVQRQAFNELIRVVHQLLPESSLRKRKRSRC
Put plainly: Bioactivity of protease-treated mouse IFN-γ (NO production by C2C12 cells). Type of data set: cell-based. The procedure:
Effects of three purified A. oryzae proteases on the bioactivity of mouse IFN-γ: (A) protease powder prepared according to Example 1 (preparation); (B) alkaline protease; (C) 26 kDa protease; and (D) deuterolysin. 50 ng quantities of mouse recombinant IFN-γ were incubated for 24 hours at 37° C. with either buffer or 2.5-10 ng of the indicated protease: (∘) Buffer; (▴) 2.5 ng; ([…]) 5 ng; (▪) 10 ng. IFN-γ bioactivity was determined as conduction of NO production by C2C12 cells.
To evaluate the specificity of this effect, the three Aspergillus oryzae proteases were tested for their ability to inactivate mouse IFN-γ, and a different pattern was seen. […] This was an unexpected finding given the ability of alkaline protease to cause partial proteolysis of IFN-γ.

A further data set addresses T2, mouse recombinant TNF-α (Mus musculus, UniProt P06804).
T2 sequence (P06804 80-235 limits assumed): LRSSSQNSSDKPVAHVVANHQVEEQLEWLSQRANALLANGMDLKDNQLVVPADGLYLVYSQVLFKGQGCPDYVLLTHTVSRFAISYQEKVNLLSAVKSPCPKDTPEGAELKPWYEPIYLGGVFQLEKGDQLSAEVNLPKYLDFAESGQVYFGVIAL
The data set is described as follows: Bioactivity of protease-treated mouse TNF-α in the C2C12 cell bioassay (nitrite). Further details: key to Inactivation of Mouse TNF-α: +: Indicates that the protease inactivated the cytokine; ^a: Cleavage of the cytokine occurred without inactivation. Conditions: for Effect on bioactivity of mouse TNF-α: C2C12 cells, NO (nitrite) production. Type of data set: cell-based. Here is the method: Effects of three purified A. oryzae proteases on the bioactivity of mouse TNF-α (A) protease powder prepared according to Example 1 (preparation); (B) alkaline protease; (C) 26 kDa protease; and (D) deuterolysin. 50 ng quantities of TNF-α were incubated at 37° C. for 24 hours with the indicated quantities of the protease powder prepared according to Example 1 or one of the three purified proteases. The reactions were then stopped by addition of FBS and samples were added to C2C12 cells that had been costimulated with mouse IFN-γ. Twenty-four hours later, nitrite was measured in culture fluids.
The protease powder prepared according to Example 1 inactivates mouse recombinant TNF-α. 50 ng of the cytokine was treated for 24 hours with either 0 (□); 5 (∘); or 10 ng ([…]) of either Pseudomonas elastase (A) or protease powder prepared according to Example 1 (B). Then the residual bioactivity of the cytokine was measured by its ability to co-activate mouse C2C12 myoblast cells in the presence of excess IFN-γ for the production of NO (nitrite).
The protease powder prepared according to Example 1 inactivates mouse recombinant TNF-α by limited proteolysis. (FIG. 16 A-B) This property was established by measuring the loss of activity of TNF-α in a bioassay in which the cytokine was used to coactivate mouse myoblast C2C12 cells for the production of NO by transcriptional activation of the inducible NO synthase (iNOS) gene. The assay can be used to measure either TNF-α or IFN-γ activity by adding test samples containing one of the cytokines to cells stimulated with an excess of the other cytokine. Nitrite is a stable endproduct of NO produced by the cells. […] (FIG. 16A-B).
The three purified proteases were then compared for their ability to inactivate mouse TNF-α using the C2C12 cell bioassay.

A short description of data set [3]: Hydrolysis of D-val-leu-lys-pNA (kinetic absorbance assay). Format: biochemical. To be noted: 20 mM Tris-HCl buffer, pH 7, absorbance at 405 nm. Here is the method: Specific activity of the purified enzymes was determined by measuring hydrolysis of protamine sulfate and D-val-leu-lys-pNA. For the former, enzyme-substrate mixtures were prepared in 20 mM Tris-HCl, pH 7 or 8, and incubated for 30 min at 37° C. […] Hydrolysis of D-val-leu-lys-pNA in 20 mM Tris-HCl buffer, pH 7, was determined by measuring absorbance at 405 nm wavelength every 10 sec over 10 min and calculating the change in absorbance (mOD units) per min per μg protein.

human TNF-α, sequence (P01375 77-233 limits assumed): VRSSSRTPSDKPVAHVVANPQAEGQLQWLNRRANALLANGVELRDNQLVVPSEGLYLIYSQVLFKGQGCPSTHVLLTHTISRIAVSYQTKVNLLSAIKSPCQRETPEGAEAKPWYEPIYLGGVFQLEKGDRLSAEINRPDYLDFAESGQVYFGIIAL

B1: Alkaline Protease: Aspergillus oryzae alkaline protease (oryzin), SEQ ID NO: 2, purified from the protease powder of Example 1 (protein, listed as Aspergillus oryzae)
chain: MQSIKRTLLLLGAILPAVLGAPVQETRRAAEKLPGKYIVTFKPGIDEAKIQEHTTWATNIHQRSLERRGATGGDLPVGIERNYKINKFAAYAGSFDDATIEEIRKNEDVAYVEEDQIYYLDGLTTQKSAPWGLGSISHKGQQSTDYIYDTSAGEGTYAYVVDSGVNVDHEEFEGRASKAYNAAGGQHVDSIGHGTHVSGTIAGKTYGIAKKASILSVKVFQGESSSTSVILDGFNWAANDIVSKKRTSKAAINMSLGGGYSKAFNDAVENAFEQGVLSVVAAGNENSDAGQTSPASAPDAITVAAIQKSNNRASFSNFGKVVDVFAPGQDILSAWIGSSSATNTISGTSMATPHIVGLSLYLAALENLDGPAAVTKRIKELATKDWKDVKGSPNLLAYNGNA
With B1, the Substrate specificity result in data set [1] is recorded as “Protamine > casein,; also recorded: hemoglobin; val-leu-lys”. Further, the pI in data set [2] is recorded as 6.53. Also, the Heat stability entry in data set [2] (deuterolysin for 10 min, alkaline protease for 3 h) is “Stable at 37 °C”. The “Cleavage of human TNF-α” value with human TNF-α was “produced a similar pattern of cleavage”. Further, the “Effect on bioactivity of mouse IFN-γ” value in the data set with mouse recombinant IFN-γ is on record as “did not significantly affect the activity of mouse IFN-γ”. In the data set with mouse recombinant TNF-α, the “Effect on bioactivity of mouse TNF-α” value was “dose-dependent inactivation of mouse TNF-α”. For the same molecule, the “Inactivation of Mouse TNF-α” value in the data set with mouse recombinant TNF-α (Table 7 summary) is “+”. For the same molecule, in data set [3], the “Specific activity, Val-leu-lys-pNA” value stood at 116.7 mOD/min/μg protein.

B2: 26 kDa Protease: A. oryzae protease cloned recently by Novozyme, labeled the 26 kDa protease, SEQ ID NO: 3 (protein, listed as Aspergillus oryzae)
chain: HASADAWASSKAISSTSSPSSFKMRFISVSSLLLALAPALNAVPVEVAGSAQGLDVTLSQVGNTRIKAWKNTGSEDVTFVHLNFFKDAAPVQKVSLFRNATEVQFQGIKQRLITEGLSDDALTTLAPGATIEDEFDIASTSDLSEGGTITINSNGLVPITTDNKVTGYIPFTSNELSIDVDAAEAASVTQAVKILERRTKVTSCSGSRLSALQTALRNTVSLARAAATAAQSGSSSRFQEYFKTTSSSTRSTVAARLNAVANEAASTSSGSTTYYCSDVYGYCSSNVLAYTLPSYNIIANCDLYYSYLPALTSTCHAQDQATTTLHEFTHAPGVYSPGTDDLGYGYSAATALSASQALLNADTYALFANAVNLNC
For the molecule B2, the Substrate specificity result in data set [1] is “protamine”. Also, the pI in data set [2] was 6.72. Also, the “Cleavage of human TNF-α” value in the data set with human TNF-α was “to a lesser extent”. The “Effect on bioactivity of mouse IFN-γ” value with mouse recombinant IFN-γ is reported as “primarily associated with the 26 kDa protease”. In addition, the “Effect on bioactivity of mouse TNF-α” value with mouse recombinant TNF-α is reported as “devoid of such activity”. Further, the “Specific activity, Val-leu-lys-pNA” value in data set [3] was 2.1 mOD/min/μg protein.
